“Also recorded” adds a separate entry of the source.

Data on one molecule can be found in patent US20170173114A1, “METHODS AND COMPOSITIONS FOR INDUCTION OF UCP1 EXPRESSION” (Joslin Diabetes Center, Inc., priority 2014, published 2017).

The test system of test [1] is UCP1. The test is described as follows: High-throughput screen of secreted proteins for UCP1 mRNA induction in committed brown preadipocytes. The test is classed as cell-based, murine. The note with it: after induction media; secreted protein library. As for the experimental part: To identify protein(s) that can induce UCP1 expression in brown preadipocytes, a high-throughput screen was performed using a protein library containing more than 5,000 mammalian secreted proteins (Lin H. et al., Science 320:807-811, 2008) in an immortalized murine brown preadipocyte cell line (Klein J. et al., J. Biol. Chem. 274:34795-34802, 1999; Tseng Y. H. et al., Nat. Cell. Biol. 7:601-611, 2005). The screen included applying induction media to brown preadipocyte cells, resulting in committed brown preadipocytes.

Test [2] concerns PPARγ, aP2, FAS, PRDM16, PGC1α, CIDEA. The test is described as follows: Adipogenic and brown fat marker mRNA expression in WT-1 brown preadipocytes. The test is classed as cell-based, murine. The protocol: Total RNA was isolated with QIAzol lysis reagent (Qiagen, Valencia, Calif.) and purified by RNeasy Mini columns (Qiagen) following the manufacture's instructions. cDNA was prepared from total RNA using the Advantage RT-PCR kit (BD Biosciences, Palo Alto, Calif.) according to manufacturer's instructions. Diluted cDNA was used in a PCR reaction with SYBR Green Master Mix (Applied Biosystems, Foster City, Calif.) and primers specifically designed for detection of the gene of interest. PCR reactions were run in duplicate for each sample and quantitated in the ABI Sequence Detection System (Applied Biosystems). Data were expressed as arbitrary units after normalization to levels of expression of internal controls for each sample. Sequences of primers for specific genes are each obtained from the published literature or designed using publically available gene sequence databases. Unless otherwise indicated, gene expression data described in the examples below was obtained using QPCR.
The effect of FGF6 on differentiation of WT-1 murine brown preadipocytes was also examined. WT-1 cells can be induced to undergo brown adipocyte differentiation, characterized by lipid accumulation and expression of adipogenic and brown fat markers, as described above (Klein et al. (1999) J Biol Chem 274:34795; Tseng et al. (2005) Nat Cell Biol 7:601). WT-1 cells were treated with FGF6 in growth media (DMEM+10% FBS), a vehicle control (“control” or “C” referred to in FIGS. 3A-D), or induction media (“induction” or “I” referred to in FIGS. 3A-D) as described above for seven days. Following the treatment, cells were examined for the color of the culture media in combination with oil Red O staining, expression of adipogenic markers, expression of brown fat markers, immunofluorescent staining of cells with UCP1 and DPAI, and Western blot analysis to determine the presence of UCP1 and β-tubulin. The results are described in FIGS. 3A to 3D.
FGF2, FGF6 and FGF9 were used at a dosage of 50 ng/mL, 100 ng/mL, 200 ng/mL or 300 ng/mL. FGF21 was used at the dosage of 50 ng/ml and 500 ng/mL. The concentration of BMP7 was 3.3 nM. RNA was isolated and UCP1 and PPARγ expression levels were evaluated by quantitative reverse transcription polymerase chain reaction (Q-RT-PCR) analysis after 24 hours (i.e., 1 day) (FIG. 14A), 2 days (FIG. 14B), 5 days (FIG. 14C) and 7 days (FIG. 14D) of treatment. All experiments were performed triplicate and the data are presented as mean+/−SEM.
FGF2, FGF6 and FGF9 were used at a dosage of 200 ng/mL. FGF21 was used at a dosage of 500 ng/mL. The concentration of BMP7 was 3.3 nM. mRNA was isolated and UCP1 and PPARγ expression levels were evaluated by quantitative reverse transcription polymerase chain reaction (Q-RT-PCR) analysis after 24 hours (i.e., 1 day), 2 days, 5 days and 7 days of treatment (FIG. 15). All experiments were performed triplicate and the data are presented as mean+/−SEM.

The subject of test [3] is UCP1. The test is described as follows: UCP1 expression in 3T3-F442A white preadipocytes overexpressing FGF6. It counts as cell-based. The note with it: constitutive overexpression of FGF6 in 3T3-F442A. The protocol: FGF6 lentiviral vector was generated by cloning mouse FGF6 cDNA into a lentiviral vector. Lentiviruses were obtained by transfecting 293T cells with lentiviral vectors. Viral supernatant was filtered through 0.45 um filter before applying to cells. Transduction was accomplished by incubating cells with virus supernatant. Stable cells were established by drug selection. The lentiviral vector contains a drug resistant gene for selection.
To assess FGF6's role in the regulation of mitochondrial activity, FGF6 was stably expressed in WT-1 brown preadipocytes and 3T3-F442A white preadipocytes. Stable cells were generated by viral infection followed by drug selection.
As mentioned above, 3T3-F442A white preadipocytes were also used to determine FGF6's role in mitochondrial activity regulation.

A further test concerns WT-1 brown preadipocytes. As to the kind of experiment: Extracellular acidification rate (glycolysis) profile in FGF6 overexpressing WT-1 brown preadipocytes. It counts as cell-based, murine. The note with it: FGF6 overexpressing WT-1 vs control cells. As for the experimental part:
To determine whether nutrient supply could regulate mitochondrial activity in FGF6-treated cells, concentrations of glucose in the assay media of cells were manipulated and measured in the Seahorse Bioanalyzer. FGF6 was stably expressed in WT-1 brown preadipocytes and 3T3-F442A white preadipocytes. Stable cells were generated by viral infection followed by drug selection.
A profile of the extracellular acidification rate (ECAR) was developed as described in FIG. 20A. 10 mM glucose was added to the assay media, which was then taken up by the cells and catabolized through glycolysis, producing ATP and protons, and resulting in a rapid increase in ECAR. […] Lastly, the glycolysis inhibitor 2-DG was added to measure […].

Another test concerns LDHA, PDK1, PKM2. As to the kind of experiment: LDHA, PDK1 and PKM2 mRNA expression in WT-1 cells. Particulars: WT-1, 24 hours; vs vehicle. The test is classed as cell-based, murine. The protocol: To test the role of specific prostaglandins (PGs) in activating UCP1 expression, WT-1 brown adipocytes were pretreated with PGE2, PGI2 and FGF6 for 24 hours. mRNA expression levels of UCP1, PTGS2, LDHA, PDK1 and PKM2 were then measured.

Test [4] can be described thus: Glucose tolerance test in Chow or high fat diet mice. The test is classed as in vivo, C57BL6 mice. The note with it: Chow or HFD mice, i.p. glucose 2 mg/g after 16 h fast; particularly in obese HFD mice. The protocol:
C57BL6 mice were fed either the Chow diet or a high fat diet (HFD) and were fasted overnight (16 h) prior to intraperitoneal injection of 2 mg/g body weight of glucose using a 20% (w/v) solution.

B1: FGF6: fibroblast growth factor 6; recombinant human FGF from R&D Systems, or mouse FGF6 cDNA overexpressed by lentiviral vector (protein)
chain: KRQRRLYCNVGIGFHLQVLPDGRISGTHEENPYSLLEISTVERGVVSLFGVRSALFVAMNSKGRLYATPSFQEECKFRETLLPNNYNAYESDLYQGTYIALSKYGRVKRGSKVSPIMTVTHFLPRI
Take B1: the “UCP1 mRNA expression in committed brown preadipocytes (screen)” value with UCP1 [1] is on record as “induced UCP1 mRNA expression”. For the same molecule, in test [2] (200 ng/mL with insulin and T3, 1, 2, 5, 7 days), the “PPARγ expression level, time course” value was “very low levels of PPARγ”. For the same molecule, the PPARγ expression level entry in test [2] (50-300 ng/mL with insulin and T3, 1, 2, 5 and 7 days) is listed as “very low levels of PPARγ”. Also, in test [2] (50-300 ng/mL, three days), the “expression of transcriptional regulators of UCP1 (PGC1α, PPARγ, PRDM16)” value was “did not increase”. Besides, the “mRNA expression of other brown fat markers (PRDM16, PGC1α, CIDEA)” value in test [2] (WT-1, seven days) is listed as “did not, in contrast, have as significant an impact”. Also, the “mRNA expression of adipogenic markers (PPARγ, aP2, FAS)” value in test [2] (WT-1, seven days, control, induction media or FGF6) was “only the induction media significantly increased each of the adipogenic markers”. Also, the UCP1 expression result in the test on UCP1 [3] was “resulted in UCP1 expression; also recorded: marked increases”. In addition, the “cellular glycolysis, glycolytic capacity and glycolytic reserve (ECAR)” value with WT-1 brown preadipocytes is “increase in cellular glycolysis, glycolytic capacity and glycolytic reserve”. In the test on LDHA, PDK1, PKM2, the “LDHA mRNA expression” value was “increase”, the “PDK1 mRNA expression” value is given as “increase” and the “PKM2 mRNA expression” value was “increase”. The glucose tolerance entry in test [4] is reported as “enhanced glucose tolerance; also recorded: improved glucose tolerance”.
